To fix the notation:
B3: His-SNAP25 (natural protein)
chain: MPADPSEEVAPQVPKTELEELQINAQGVADESLESTRRMLALCEESKEAGIRTLVALDDQGEQLDRIEEGMDQINADMREAEKNLSGMEKCCGICVLPCNKSQSFKEDDGTWKGNDDGKVVNNQPQRVMDDRNGMMAQAGYIGRITNDAREDEMEENMGQVNTMIGNLRNMALDMGSELENQNRQIDRINRKGESNEARIAVANQRAHQLLK

Assay [1] deals with Syx1A (Syntaxin 1A), endogenous (Drosophila melanogaster (endogenous in adult fly heads)) (UniProt Q24547). In words: co-IP.
The target in the assay “His-SNAP25” is B3. Put plainly: pull-down.
Assay [2] deals with GST-Syx1A (Syntaxin 1A, 1-267 aa) (Drosophila melanogaster, UniProt Q24547 1-267). In words: pull-down.
Assay [3] deals with V100 (neuronal v-ATPase V0 subunit a1), endogenous (Drosophila melanogaster (endogenous in adult fly heads)) (UniProt Q8IML5). Put plainly: co-IP.
In assay [4] the target is GST-open Syx1A (Syx1A L168A/E169A mutant, 1-267 aa) (Drosophila melanogaster, UniProt Q24547 1-267, L168A | E169A). Put plainly: pull-down.

Some results are limits rather than exact numbers.

Sequence of Syx1A (Syntaxin 1A), endogenous (Drosophila melanogaster (endogenous in adult fly heads)) (Q24547 whole entry): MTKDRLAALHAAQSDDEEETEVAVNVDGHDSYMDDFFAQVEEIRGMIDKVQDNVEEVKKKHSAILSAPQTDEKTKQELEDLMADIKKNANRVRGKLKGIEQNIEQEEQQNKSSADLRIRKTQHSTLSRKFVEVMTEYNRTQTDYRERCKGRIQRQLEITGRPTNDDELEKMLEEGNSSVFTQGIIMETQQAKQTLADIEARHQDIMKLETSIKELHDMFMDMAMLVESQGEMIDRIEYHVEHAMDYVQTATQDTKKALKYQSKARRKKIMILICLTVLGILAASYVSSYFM

As for “V100 (neuronal v-ATPase V0 subunit a1), endogenous (from UniProt Q8IML5 1-833) (natural protein)”, the percent of V100 in a complex with Syx1A in assay [1] is below 50%.

B1: GST-Syx1A-H3 (Syx1A SNARE domain, 200-267 aa) (domain or fragment)
chain: ARHQDIMKLETSIKELHDMFMDMAMLVESQGEMIDRIEYHVEHAMDYVQTATQDTKKALKYQSKARRK
For the molecule B1, in the assay with His-SNAP25, the binding result was “binds”.

B2: His-n-Syb (neuronal Synaptobrevin, amino acids 1-104) (domain or fragment)
chain: MADAAPAGDAPPNAGAPAGEGGDGEIVGGPHNPQQIAAQKRLQQTQAQVDEVVDIMRTNVEKVLERDSKLSELDDRADALQQGASQFEQQAGKLKRKFWLQNLK
With B2, the binding result in assay [2] is reported as “binds”.
B3 registered a percent of total input in complex with V100 (% of total input) in assay [3] of 1. Moreover, the binding result in assay [2] and in assay [4] was “binds” in each case.

Source of the values: publication PMC3987144 (The Journal of Cell Biology, 2014).
